Data as given in patent US20110135636A1 (SYMPHOGEN A S, published 2011).
Numbering of substitutions follows the chain as printed. Each block holds one binder with its values, some of them ahead of it.

How the values were obtained:
[1] = target: T1, wild type full length EGFR purified from A431 cells (human, UniProt P00533 25-1210); assay: EGF blocking ELISA on coated full length EGFR; blocked ligand biotinylated EGF
T1 construct: mature; Bought; coated on ELISA wells; also called full length EGFR receptor antigen; Sigma E3641
Procedure: The next morning wells were washed twice with PBS-T and blocked for one hour with 150 μl PBS-T-1% BSA at room temperature, followed by wash twice in PBS-T. Next 80 μl of serially diluted Anti-EGFR antibodies and control antibodies were added to wells and incubated 30 min at room temperature. […] Subsequently wells were washed five times with PBS-T, followed by incubation with 100 μl/well Streptavidin-HRP secondary reagent diluted 1:1000 in blocking buffer and incubation at room temperature for 30 min. Finally wells were washed five times with PBS-T and plates were developed by adding 100 μl/well TMB substrate and incubated for 60 min. After incubation the reaction was stopped by addition of 1 M H₂SO₄; 100 μl/well and plates were read at OD 450 nm.

[2] = target: T2, full length Cynomolgus EGFR expressed on CHO cells (Cynomolgus monkey (Macaca fascicularis), UniProt P55245 25-1210 (rhesus entry)); assay: FACS on CHO cells transfected with full length Cynomolgus EGFR
T2 construct: The entry was cloned including the signal peptide; also called Cynomolgus full length EGFR
Procedure: Bound antibody was detected with a PE labelled goat F(ab′)₂ anti-human IgG FC. Gating was performed on uniform cells (SCC/FCS properties) expressing EGFR. Binding is expressed as % maximal antibody binding at 1 nM concentration.
Briefly quantitative FACS analysis was performed on a BD FACS array Bioanalyzer System to determine the number of EGFR molecules expressed on the surface of CHO cells transfected with either Human or Cynomolgus full length EGFR. […] Antibodies were incubated with cells for 14 hours on a shaker, to promote full antigen saturation at all antibody concentrations tested, while FACS buffer was added 0.02% NaN₃ and temperature kept at 4° C. to prevent receptor internalization. After incubation, cells were pelleted at 1200 RPM for 5 min at 4° C. and resuspended in 200 ul FACS buffer. Next cells were stained with a secondary Goat F(ab′)₂ anti-Human IgG FcGamma PE diluted 1:500 and incubated for 30 min at 4° C. on a shaker. Finally cells were washed twice in FACS buffer and analyzed on a BD FACS array Bioanalyzer System with gating on EGFR expressing CHO cells displaying uniform forward/side scatter properties.

[3] = target: T3, full length human EGFR expressed on the cell surface (human, UniProt P00533 25-1210); assay: cell ELISA, IgG titrated on unfixed A431-NS cells after saturation with Fab 992; given as ED50
T3 construct: whole, on cells; also called EGFR on A431-NS cells; EGFR on HN5 cells
Procedure: (§1) Cell ELISA: The ELISA was performed essentially as described in example 15 with modifications. Cells were left unfixed to allow conformational EGFR flexibility after antibody additions. Briefly, 10,000 A431-NS cells were grown in 96 well ELISA plates containing DMEM with added 0.5% FCS and 1% P/S at 37° C., 5% CO₂ overnight. […] 25 μl DMEM containing 1% BSA was added to wells used for testing of IgG antibodies without added Fab fragments. […] Next, wells were washed four times with PBS and 50 μl of a secondary monoclonal Mouse-anti-Human (Fc specific) HRP conjugate diluted 1:5000 in DMEM containing 1% BSA was added and incubated on ice for 30 min. Finally wells were washed four times with PBS and plates developed by adding 50 μl/well TMB substrate and read at 620 nm every 5-15-30 min. After incubation with substrate the reaction was stopped by addition of 1 M H₂SO₄ and absorbance read at 450 nm. The functional affinity expressed as ED50 values were calculated by subtraction of the average background binding with secondary reagent only, followed by normalization of the binding curves by plotting % maximal binding relative to each antibody tested.
(§2) Investigations of antibody induced binding enhancements were determined by concurrent ELISA binding studies, employing same secondary antibody reagent and incubation times.

[4] = target: T3, full length human EGFR expressed on the …; assay: cell ELISA, IgG titrated on unfixed A431-NS cells after saturation with Fab 992 and Fab 1024; given as ED50
Procedure: as §1, §2

[5] = target: T4, recombinant human EGFR extracellular domain with 6xHis (human, UniProt P00533 25-645); assay: SPR, reference cycle of the run with mix N=6
T4 construct: In-house produced; also called 6xHis EGFR ECD; soluble human EGFR ECD; not shown: 6xHis tag
Procedure: SPR analysis was performed on a Biacore 3000 machine containing four flow cells. A CM5 Biacore chip was conjugated with 10,000 Resonance units (Ru) polyclonal anti-His antibody to flow cells 1-4 according to the manufacturer's instructions. […] Immediately after antigen injection the maximal binding of the Anti-EGFR mAb without competition was established in each flow cell during a reference run. Briefly 5 μl antibody at a concentration of 40 μg/ml was injected over all flow cells with captured EGFR followed by stripping of the antibody/antigen complex with a low pH acid wash (10 sec. contact time with 10 mM Glycine-HCl, pH2). After the determination of Anti-EGFR antibody maximal binding to each flow cell, a competition run was performed during the same Biacore cycle. Flow cells were first saturated with EGFR ECD antigen followed by injection of different reference antibodies or Anti-EGFR antibodies into separate flow cells using the same antigen saturating conditions as outlined above. This step was immediately followed by a second injection of Anti-EGFR antibody over the flow cell saturated with EGFR antigen and competition antibody to minimize the dissociation of either antigen or blocking antibody. Then the antibody/antigen complexes were stripped off with a low pH acid wash (10 sec. contact time with 10 mM Glycine-HCl, pH 2) and the whole cycle beginning with the reference run was repeated with a new Anti-EGFR antibody. The degree of inhibition of tested Anti-EGFR antibodies were determined by comparing the Ru max value of the individual Anti-EGFR antibody before and after competition by introduction of report points recorded two seconds before and after injection of each sample.

[6] = target: T3, full length human EGFR expressed on the …; assay: cell ELISA, IgG titrated on unfixed A431-NS cells after saturation with Fab 1024; given as ED50
Procedure: as §1, §2

[7] = target: T3, full length human EGFR expressed on the …; assay: cell ELISA, IgG titrated on unfixed A431-NS cells after saturation with Fab 1024 and Fab 1030; given as ED50
Procedure: as §1, §2

[8] = target: T3, full length human EGFR expressed on the …; assay: cell ELISA, IgG titrated on unfixed A431-NS cells after saturation with Fab 992 and Fab 1030; given as ED50
Procedure: as §1, §2

B1: antibody 1260 (antibody, human IgG1, kappa, V domains shown)
VH: QVQLKESGPGLVAPSQSLSITCTVSGFSLTTYGVHWVRQPPGKGLEWLGVIWAGGSTNYNSALMSRLSIKKDNSKSQVFLKMNSLQTDDTAMYYCARAYGYNFDYWGQGTTLTVSS
VL: DIQMTQTTSSLSASLGDRVTISCSASQGITNYLNWYQQKPDGTVKLLIYYSSSLHSGVPSRFSGSGSGTDYSLTISNLEPEDIATYYCQQYSEIPYTFGGGTKLELKR
notes: Chimeric IgG1 kappa
IC50 (read off the curve) [1]: ~50 ng mAb/ml

B3: antibody 1030 (antibody, human IgG1, kappa, V domains shown)
VH: EVQLVESGGGLVKPGGSLKLSCAASGFTFSSYALSWVRQTPERRLEWVASISGVGSTYFPDSVKGRFTMSRDNARNILYLQMSSLRSEDTAMYYCARGSDGYFYAMDYWGQGTSVTVSS
VL: DIVLTQSPASLAVSLGQRATISCRASKSVSTSGYSFMHWYQLKPGQPPKLLIYLASNLESGVPARFSGSGSGTDFTLNIHPVEEEDAATYYCQHSREFPLTFGGGTKLEIKR
notes: Chimeric IgG1 kappa
EC50 [3]: 1.6 nM
EC50 [4]: 2.2 nM
Rumax reference cycle [5]: 87 Ru

B4: antibody 992 (antibody, human IgG1, kappa, V domains shown)
VH: EVQLQQPGSELVRPGASVKLSCKASGYTFTSYWMHWVKQRPGQGLEWIGNIYPGSRSTNYDEKFKSKATLTVDTSSSTAYMQLSSLTSEDSAVYYCTRNGDYYVSSGDAMDYWGQGTSVTVSS
VL: DIQMTQTTSSLSASLGDRVTISCRTSQDIGNYLNWYQQKPDGTVKLLIYYTSRLHSGVPSRFSGSGSGTDFSLTINNVEQEDVATYFCQHYNTVPPTFGGGTKLEIKR
notes: Chimeric mouse/human IgG1 kappa; the VL entry includes the human kappa constant region
Rumax reference cycle [5]: 85 Ru
EC50 (read off the curve) [2]: ~0.01 nM
EC50 [6]: 0.5 nM
EC50 [7]: 0.5 nM

B6: antibody 1024 (antibody, human IgG1, kappa, V domains shown)
VH: QVQLQQPGAELVEPGGSVKLSCKASGYTFTSHWMHWVKQRPGQGLEWIGEINPSSGRNNYNEKFKSKATLTVDKSSSTAYMQFSSLTSEDSAVYYCVRYYGYDEAMDYWGQGTSVTVSS
VL: DIVMTQAAFSNPVTLGTSASISCRSSKSLLHSNGITYLYWYLQKPGQSPQLLIYQMSNLASGVPDRFSSSGSGTDFTLRISRVEAEDVGVYYCAQNLELPYTFGGGTKLEIKR
notes: Chimeric IgG1 kappa
EC50 [3]: 0.9 nM
Rumax reference cycle [5]: 110 Ru
EC50 (read off the curve) [2]: ~0.008 nM
EC50 [8]: 0.8 nM

B8: antibody 1208 (antibody, human IgG1, kappa, V domains shown)
VH: EVQLVESGGGLVKPGGSLKLSCAASGFAFSSYDMSWVRQTPEKRLEWVAYIGSGDDNTHYPDSVKGRFTISRHNAKNTLYLQMSSLKSEDTAMYYCARQKYGNYGDTMDYWGQGTSVTVSS
VL: DVVMTQTPLSLPVSLGDQASISCRSSQSLVHSNGNTYLHWYLQKPGQSPKLLIYKVSNRFSGVPDRFSGSGSGTDFTLKISRVEAEDLGVYFCSQSTHVPTFGGGTKLEIKR
notes: Chimeric IgG1 kappa; also called clone 1208
IC50 (read off the curve) [1]: ~20 ng mAb/ml

Continued, values first:

binding result [2]: no binding (tested: 1 nM)
B2: antibody 1320 (antibody, human IgG1, kappa, V domains shown)
VH: QVQLQQPGAELVKPGASMKLSCKASGYTFTNYWMHWVKQRPGQGLEWIGEINPSNGRTNYNEKFKSKATLTVDKSSSTAYMQLSSLTSEDSGVYYCAKGGNYYDYDWDYWGQGTTLTVSS
VL: B1 VL with G28D, T30S, Y50H, S51T, S53T, E93K, I94L, Y96W, L106I
notes: Chimeric IgG1 kappa

Rumax reference cycle [5]: 135 Ru
B5: antibody 1261 (antibody, human IgG1, kappa, V domains shown)
VH: EVQLVESGGGLVKPGGSLKLSCAVSGFTFSSYVMSWVRQTPEKRLEWVATITSGGRNIYYLDSVKGRFTISRDNAKNTLYLQMSSLRSEDTAMYYCARHEDYRYDGYYAMDYWGQGTSVTVSS
VL: QIVLTQSPAIMSASPGEKVTITCSASSSVSYMHWFQQKPGTSPKLWIYSTSNLASGVPARFSGSGSGTSYSLTISRMEAEDAATYYCQQRSSYPYTFGGGTKLELKR
notes: Chimeric IgG1 kappa

Rumax reference cycle [5]: 91 Ru
B7: antibody 1347 (antibody, human IgG1, kappa, V domains shown)
VH: QVQLKESGPGLVAPSQSLSITCTVSGFSLTGHGVNWVRQPPGKGLEWLGMIWGDGSTDYNSTLKSRLSISKDNSKSQVFLKMNSLQTDDTARYYCARGYGYLYYFDYWGQGTTLTVSS
VL: ENVLTQSPAIMSASPGEKVTMTCRASSSVSSSYLHWYQQKSGASPKLWIYSTSNLASGVPARFSGSGSGTSYSLTVNSVETEDAATYYCHQYSGFPFTFGSGTKLELKR
notes: Chimeric IgG1 kappa
